T1: human FcγR2a-ECD-His (human, UniProt P12318 34-208)
T1 construct: His-tagged fusion made in house (UniProt P12318); The SPR method names only 'Fc-receptors IIa, IIb, and IIIa'; also called FcγRIIa; Fc-receptor IIa
T1 chain: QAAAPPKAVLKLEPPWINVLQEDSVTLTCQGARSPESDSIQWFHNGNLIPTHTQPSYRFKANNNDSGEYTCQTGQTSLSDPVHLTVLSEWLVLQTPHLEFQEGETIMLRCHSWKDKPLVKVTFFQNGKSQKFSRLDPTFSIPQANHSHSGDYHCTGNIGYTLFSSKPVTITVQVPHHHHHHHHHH

T2: human FcγR2b-ECD-His (human, UniProt P31994 46-217)
T2 construct: His-tagged fusion made in house (UniProt P31994); also called FcγRIIb; Fc-receptor IIb
T2 sequence: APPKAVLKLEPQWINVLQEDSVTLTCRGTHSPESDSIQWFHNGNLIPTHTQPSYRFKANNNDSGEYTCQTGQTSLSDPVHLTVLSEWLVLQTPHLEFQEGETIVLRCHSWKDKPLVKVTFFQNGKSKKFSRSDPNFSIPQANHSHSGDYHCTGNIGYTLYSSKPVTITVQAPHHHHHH

B1: BEAT CD38/CD47-48 (bispecific antibody, human IgG1, kappa)
heavy 1: EVQLVESGGGLIQPGGSLRLSCAASGFTLSRNTMHWVRQAPGKGLEWVSVIYQSGVTRYADSVKSRFTISRDNSKNTLYLQMNSLRAEDTAVYYCARGRYGVAGGPGYAFDVWGQGTLVTVSSASTKGPSVFPLAPSSKSTSGGTAALGCLVKDYFPEPVTVSWNSGALTSGVHTFPAVLQSSGLYSLSSVVTVPSSSLGTQTYICNVNHKPSNTKVDKKVEPKSCDKTHTCPPCPAPELLGGPDVFLFPPKPKDTLMISRTPEVTCVVVDVSHEDPEVKFNWYVDGVEVHNAKTKPREEQYNSTYRVVSVLTVLHQDWLNGKEYKCKVNNKALPAPEEKTISKAKGQPREPAVYTLPPSREEMTKNQVKLVCLVTGFYPSDIAVEWESSGQPENNYYTTPPMLDSDGSFSLVSWLNVDKSRWQQGNIFSCSVMHEALHNRFTQKSLSLSPG
heavy 2: not shown
light: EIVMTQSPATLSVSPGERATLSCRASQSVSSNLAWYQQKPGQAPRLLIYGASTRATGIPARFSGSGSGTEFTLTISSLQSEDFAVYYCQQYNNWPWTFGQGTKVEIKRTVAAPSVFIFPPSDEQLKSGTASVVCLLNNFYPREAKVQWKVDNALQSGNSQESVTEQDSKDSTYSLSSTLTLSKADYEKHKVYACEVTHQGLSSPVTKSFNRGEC
notes: 2+1 biparatopic format; the number of light chains follows from the three Fab domains; also called BEAT CD38/47-48; BEAT 38/47-48
B2: BEAT CD38/CD47-40 (bispecific antibody, human IgG1, kappa)
heavy 1: EVQLVESGGGLIQPGGSLRLSCAASGFTLSRNTMHWVRQAPGKGLEWVSVIYQSGVTRYADSVKSRFTISRDNSKNTLYLQMNSLRAEDTAVYYCARGRYGVAGGPGYAFDVWGQGTLVTVSSASTKGPSVFPLAPSSKSTSGGTAALGCLVKDYFPEPVTVSWNSGALTSGVHTFPAVLQSSGLYSLSSVVTVPSSSLGTQTYICNVNHKPSNTKVDKKVEPKSCDKTHTCPPCPAPELLGGPSVFLFPPKPKDTLMISRTPEVTCVVVDVSHDDPEVKFNWYVDGVEVHNAKTKPREEQYNATYRVVSVLTVLHQDWLNGKEYKCKVNNKALPAPIEATISKAKGQPREPAVYTLPPSREEMTKNQVKLVCLVTGFYPSDIAVEWESSGQPENNYYTTPPMLDSDGSFSLVSWLNVDKSRWQQGNIFSCSVMHEALHNRFTQKSLSLSPG
heavy 2: not shown
light: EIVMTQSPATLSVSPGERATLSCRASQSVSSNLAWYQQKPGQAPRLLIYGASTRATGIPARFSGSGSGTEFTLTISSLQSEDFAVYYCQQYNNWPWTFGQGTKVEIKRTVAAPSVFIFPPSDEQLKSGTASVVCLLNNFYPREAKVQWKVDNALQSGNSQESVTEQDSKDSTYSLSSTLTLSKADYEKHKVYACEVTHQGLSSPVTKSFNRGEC
notes: 2+1 biparatopic format; E269D + S298A + S324N + K334A in both heavy chains
B3: BEAT CD38/CD47-32 (bispecific antibody, human IgG1, kappa)
heavy 1: EVQLVESGGGLIQPGGSLRLSCAASGFTLSRNTMHWVRQAPGKGLEWVSVIYQSGVTRYADSVKSRFTISRDNSKNTLYLQMNSLRAEDTAVYYCARGRYGVAGGPGYAFDVWGQGTLVTVSSASTKGPSVFPLAPSSKSTSGGTAALGCLVKDYFPEPVTVSWNSGALTSGVHTFPAVLQSSGLYSLSSVVTVPSSSLGTQTYICNVNHKPSNTKVDKKVEPKSCDKTHTCPPCPAPELLGGPSVFLFPPKPKDTLMISRTPEVTCVVVDVSHDDPEVKFNWYVDGVEVHNAKTKPREEQYNATYRVVSVLTVLHQDWLNGKEYKCKVNNKALPAPIAKTISKAKGQPREPAVYTLPPSREEMTKNQVKLVCLVTGFYPSDIAVEWESSGQPENNYYTTPPMLDSDGSFSLVSWLNVDKSRWQQGNIFSCSVMHEALHNRFTQKSLSLSPG
heavy 2: QVQLVQSGAEVKKPGSSVKVSCKASGLPDATYAIGWVRQAPGQGLEWMGRIIPRLDAEHYAQKFQGRVTITADESTSTAYMELSSLRSEDTAVYYCARGLGYYLYSSYYFDIWGQGTLVTVSSASTKGPSVFPLAPSSKSTSGGTAALGCLVKDYFPEPVTVSWNSGALTSGVHTFPAVLQSSGLYSLSSVVTVPSSSLGTQTYICNVNHKPSNTKVDKKVEPKSCGGGGSGGGGSGGGGSQVQLVQSGAEVKKPGSSVKVSCKASGLPDATYAIGWVRQAPGQGLEWMGRIIPRLDAEHYAQKFQGRVTITADESTSTAYMELSSLRSEDTAVYYCARGLGYYLYSSYYFDIWGQGTLVTVSSASTKGPSVFPLAPSSKSTSGGTAALGCLVKDYFPEPVTVSWNSGALTSGVHTFPAVLQSSGLYSLSSVVTVPSSSLGTQTYICNVNHKPSNTKVDKKVEPKSCDKTHTCPPCPAPELLGGPSVFLFPPKPKDTLMISRTPEVTCVVVDVSHDDPEVKFNWYVDGVEVHNAKTKPREEQYNATYRVVSVLTVLHQDWLNGKEYKCKVNNKALPAPIAKTISKAKGQPREPEVATFPPSRDELTKNQVTLVCLVTGFYPSDIAVEWESNGQPENNYKTDPPLLESQGSFALSSRLRVDKSRWQQGNVFSCSVMHEALHNHYTQKSLSLSPG
light: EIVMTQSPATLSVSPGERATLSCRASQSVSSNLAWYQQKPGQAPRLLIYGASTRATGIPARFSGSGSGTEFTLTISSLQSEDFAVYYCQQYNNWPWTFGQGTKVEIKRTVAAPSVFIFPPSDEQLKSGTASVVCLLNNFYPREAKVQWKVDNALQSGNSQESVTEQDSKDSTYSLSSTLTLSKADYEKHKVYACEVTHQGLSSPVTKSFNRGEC
notes: 2+1 monoparatopic format; E269D + S298A + S324N + E333A in both heavy chains
B4: BEAT CD38/CD47-34 (bispecific antibody, human IgG1, kappa)
heavy 1: EVQLVESGGGLIQPGGSLRLSCAASGFTLSRNTMHWVRQAPGKGLEWVSVIYQSGVTRYADSVKSRFTISRDNSKNTLYLQMNSLRAEDTAVYYCARGRYGVAGGPGYAFDVWGQGTLVTVSSASTKGPSVFPLAPSSKSTSGGTAALGCLVKDYFPEPVTVSWNSGALTSGVHTFPAVLQSSGLYSLSSVVTVPSSSLGTQTYICNVNHKPSNTKVDKKVEPKSCDKTHTCPPCPAPELLGGPSVFLFPPKPKDTLMISRTPEVTCVVVDVSHDDPEVKFNWYVDGVEVHNAKTKPREEQYNATYRVVSVLTVLHQDWLNGKEYKCKVNNKALPAPIEATISKAKGQPREPAVYTLPPSREEMTKNQVKLVCLVTGFYPSDIAVEWESSGQPENNYYTTPPMLDSDGSFSLVSWLNVDKSRWQQGNIFSCSVMHEALHNRFTQKSLSLSPG
heavy 2: QVQLVQSGAEVKKPGSSVKVSCKASGLPDATYAIGWVRQAPGQGLEWMGRIIPRLDAEHYAQKFQGRVTITADESTSTAYMELSSLRSEDTAVYYCARGLGYYLYSSYYFDIWGQGTLVTVSSASTKGPSVFPLAPSSKSTSGGTAALGCLVKDYFPEPVTVSWNSGALTSGVHTFPAVLQSSGLYSLSSVVTVPSSSLGTQTYICNVNHKPSNTKVDKKVEPKSCGGGGSGGGGSGGGGSQVQLVQSGAEVKKPGSSVKVSCKASGLPDATYAIGWVRQAPGQGLEWMGRIIPRLDAEHYAQKFQGRVTITADESTSTAYMELSSLRSEDTAVYYCARGLGYYLYSSYYFDIWGQGTLVTVSSASTKGPSVFPLAPSSKSTSGGTAALGCLVKDYFPEPVTVSWNSGALTSGVHTFPAVLQSSGLYSLSSVVTVPSSSLGTQTYICNVNHKPSNTKVDKKVEPKSCDKTHTCPPCPAPELLGGPSVFLFPPKPKDTLMISRTPEVTCVVVDVSHDDPEVKFNWYVDGVEVHNAKTKPREEQYNATYRVVSVLTVLHQDWLNGKEYKCKVNNKALPAPIEATISKAKGQPREPEVATFPPSRDELTKNQVTLVCLVTGFYPSDIAVEWESNGQPENNYKTDPPLLESQGSFALSSRLRVDKSRWQQGNVFSCSVMHEALHNHYTQKSLSLSPG
light: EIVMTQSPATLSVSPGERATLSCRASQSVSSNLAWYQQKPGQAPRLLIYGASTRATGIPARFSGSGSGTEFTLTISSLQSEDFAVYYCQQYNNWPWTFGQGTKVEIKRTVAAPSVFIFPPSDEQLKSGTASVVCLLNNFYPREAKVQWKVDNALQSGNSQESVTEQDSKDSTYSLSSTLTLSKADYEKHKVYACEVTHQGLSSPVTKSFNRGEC
notes: 2+1 monoparatopic format; E269D + S298A + S324N + K334A in both heavy chains

Tests used:
[1] = target: Avi-Tagged FcγRIa (Acrobiosystems, FCA-H82E8) (UniProt P12314 16-288, biotinylated (captured with Biotin CAPture kit)); assay: SPR, FcγRIa captured on CAP chip, antibody analyte; reference trastuzumab control IgG1
[2] = target: T3, CD38 on cells (Daudi, Raji, KMS-12-PE, NCI-H929, KMS-12-BM) (human, UniProt P28907); assay: flow cytometry on KMS-12-PE cells (carry CD38 and CD47), anti-human IgG-Fc PE, GeoMFI; apparent whole-cell value, the anti-CD47 arm also binds
T3 construct: full-length, cell surface; These cells also carry CD47

[3] = target: T4, Avi-Tagged FcRn (Acrobiosystems, FCM-H82W2) (human, UniProt P55899 24-297, biotinylated (captured with Biotin CAPture kit)); assay: SPR steady state, FcRn captured on CAP chip, antibody analyte; reference trastuzumab control IgG1
T4 construct: also called human neonatal Fc receptor

[4] = target: T3, CD38 on cells (Daudi, Raji, KMS-12-PE, …); assay: flow cytometry on Raji cells (carry CD38 and CD47), anti-human IgG-Fc PE, GeoMFI; apparent whole-cell value, the anti-CD47 arm also binds
[5] = target: T3, CD38 on cells (Daudi, Raji, KMS-12-PE, …); assay: flow cytometry on KMS-12-BM cells (carry CD38 and CD47), anti-human IgG-Fc PE, GeoMFI; apparent whole-cell value, the anti-CD47 arm also binds
[6] = target: T3, CD38 on cells (Daudi, Raji, KMS-12-PE, …); assay: flow cytometry on Daudi cells (carry CD38 and CD47), anti-human IgG-Fc PE, GeoMFI; apparent whole-cell value, the anti-CD47 arm also binds
human FcγR3a-ECD-His = target: T5, human FcγR3a-ECD-His (human, UniProt P08637 17-193); assay: SPR steady state, antibody on protein G chip, receptor analyte; reference trastuzumab control IgG1
T5 construct: His-tagged fusion made in house (UniProt P08637); also called FcγRIIIa; Fc-receptor IIIa

human FcγR2a-ECD-His = target: T1, human FcγR2a-ECD-His; assay: as above
human FcγR2b-ECD-His = target: T2, human FcγR2b-ECD-His; assay: as above
[7] = target: T6, CD47 on cells (Daudi cells; human red blood cells) (human, UniProt Q08722 19-323); assay: blocking of SIRPα-mIgG1 Fc binding to CD47 on Daudi cells, image-based readout with anti-mouse IgG Fc Alexa Fluor 647, % inhibition; the sheet calls the half-maximal value EC50
T6 construct: whole, on cells; These cells also carry CD38

[8] = target: T3, CD38 on cells (Daudi, Raji, KMS-12-PE, …); assay: flow cytometry on NCI-H929 cells (carry CD38 and CD47), anti-human IgG-Fc PE, GeoMFI; apparent whole-cell value, the anti-CD47 arm also binds

Binder	fold gain in affinity vs control [1] [fold]	EC50 (read off the curve) [2] [nM]	KD ratio [BEAT/Control IgG1] [3] [ratio]	EC50 (read off the curve) [4] [nM]	EC50 (read off the curve) [5] [nM]	EC50 (read off the curve) [6] [nM]	fold gain in affinity vs control (human FcγR3a-ECD-His) [fold]	fold gain in affinity vs control (human FcγR2a-ECD-His) [fold]	fold gain in affinity vs control (human FcγR2b-ECD-His) [fold]	IC50 (read off the curve) [7] [nM]	EC50 (read off the curve) [8] [nM]
B1	864	~6	0.2	~10	~30	~8	10	7	16	~0.05	~20
B2	4510		0.3				4	0.4	1		
B3	12						3	0.5	1		
B4	874						4	0.4	1		

— US20240150489A1 (ICHNOS SCIENCES, published 2024)
